Measured values as given in PMC11180174 (2024).

Molecular target: SARS-CoV-2 (Wuhan-Hu-1 strain) wild-type spike RBD with C-terminal 8xHis (SARS-CoV-2, UniProt P0DTC2 319-541)
Test: BLI

Binder	Kd
LY-CoV1404 (antibody, V domains shown) VH: QITLKESGPTLVKPTQTLTLTCTFSGFSLSISGVGVGWLRQPPGKALEWLALIYWDDDKRYSPSLKSRLTISKDTSKNQVVLKMTNIDPVDTATYYCAHHSISTIFDHWGQGTLVTVSS VL: QSALTQPASVSGSPGQSITISCTATSSDVGDYNYVSWYQQHPGKAPKLMIFEVSDRPSGISNRFSGSKSGNTASLTISGLQAEDEADYYCSSYTTSSAVFGGGTKLTVL	< 10 pM
7F3 (antibody, V domains shown) VH: EVQLVESGGGLVKPGRSLRLSCTASGFTFGDYAMSWFRQAPGKGLEWVGFIRSKAYGGTTEYAASVKGRFTISRDDSKSIAYLQMNSLKTEDTAVYYCTRDRYARYDILTGLSPAGADYFYYAMDVWGQGTTVTVSS VL: EIVLTQSPATLSLSPGERATLSCRASQSVSSYLAWYQQKPGQAPRLLIYDASNRATGIPARFSGSGSGTDFTLTISSLEPEDFAVYYCQQRSNWPQYTFGQGTKLEIK	< 10 pM
